Assay results reported in patent US20140080766A1 (MIT, published 2014).

Target: C7LLO (CEA-binding Fn3 - listeriolysin O fusion protein)

B1: carcinoembryonic antigen (CEA) on HT-1080(CEA) and HT-29 cells (other, human, UniProt P06731 35-685, looked up)
chain: KLTIESTPFNVAEGKEVLLLVHNLPQHLFGYSWYKGERVDGNRQIIGYVIGTQQATPGPAYSGREIIYPNASLLIQNIIQNDTGFYTLHVIKSDLVNEEATGQFRVYPELPKPSISSNNSKPVEDKDAVAFTCEPETQDATYLWWVNNQSLPVSPRLQLSNGNRTLTLFNVTRNDTASYKCETQNPVSARRSDSVILNVLYGPDAPTISPLNTSYRSGENLNLSCHAASNPPAQYSWFVNGTFQQSTQELFIPNITVNNSGSYTCQAHNSDTGLNRTTVTTITVYAEPPKPFITSNNSNPVEDEDAVALTCEPEIQNTTYLWWVNNQSLPVSPRLQLSNDNRTLTLLSVTRNDVGPYECGIQNELSVDHSDPVILNVLYGPDDPTISPSYTYYRPGVNLSLSCHAASNPPAQYSWLIDGNIQQHTQELFISNITEKNSGLYTCQANNSASGHSRTTVKTITVSAELPKPSISSNNSKPVEDKDAVAFTCEPEAQNTTYLWWVNGQSLPVSPRLQLSNGNRTLTLFNVTRNDARAYVCGIQNSVSANRSDPVTLDVLYGPDTPIISPPDSSYLSGANLNLSCHSASNPSPQYSWRINGIPQQHTQVLFIAKITPNNNGTYACFVSNLATGRNNSIVKSITVSASGTSPGLSA
**Q.** B1 was tested. Which Kd did it give?
**A.** 4.09 nM
